Columns and labels:
MDAMB468 cells = assay: CellTiter-Glo cell viability assay (VHH-based PAX); details: gemtuzumab-based vs cetuximab-based construct, GNE987 (1:1)
Protocol: (§1) Several cell viability experiments were performed following the procedure described below: Cells were seeded in different media into white cell culture-treated flat and clear bottom multiwell plates followed by overnight incubation in a humid chamber at 37° C. and 5% CO2. Complexation was performed as described in chapter 7.4.
(§2) The solutions were added to the cells based on the antibody concentration using nanodrop dispension using a Tecan D300e Digital Dispenser and all wells were normalized to the same volume using 0.3% TW20 in PBS pH 7.4 and DMSO to a final solvent concentration of 0.05% DMSO and 0.003% TW20. Incubation was performed at 37° C. at 5% or 10% CO2 dependent on the medium. The assay was developed after 3 days if not otherwise stated using CellTiter-Glo Luminescent Cell Viability Assay as described in the manufacturer's protocol. In brief, the plates were equilibrated to room temperature for 30 minutes. 100 mL CellTiter-Glo Buffer were added to the CellTiter-Glo Substrate Flask and mixed well. 30 μL of the reagent was transferred to each well. After incubation for 3 minutes at room temperature while shaking at 550 rpm, the plate was incubated for another 10 minutes at room temperature. The luminescence was read on an Envision reader from Perkin Elmer. Solvent alone and Bortezomib (1.0E-05 M) served as high control (100% viability) and low control (0% viability), respectively. Raw data were converted into percent cell viability relative to the high and low control, which were set to 100% and 0%, respectively. […] The concentration corresponds to the concentration of PROTACs in the PAX.

HEPG2 cells = assay: CellTiter-Glo cell viability assay (VHH-based PAX); details: cetuximab-based construct, GNE987 (1:1)
Protocol: as §1, §2

Molecule | Selectivity Index IC5O(G)/IC50(C) (MDAMB468 cells) | Selectivity Index IC50 of C on HEPG2/MDAMB468 (HEPG2 cells)
MIC5: anti-PROTAC VHH clone, SEQ ID NO: 24 (protein, new world camelid) VHH: AVQLVDSGGGLVQAGGSLRLSCAASGFTFDDYAIGWFRQAPGKEPEGILCISSSDGSAYVRDSVKGRFTMSSDNAKNTMYLQMNSLRTEDTAVYHCAVATGSCPADGGQKIFLEVWGQGTQVTVSS | 98.1 | 
MIC7: anti-PROTAC VHH clone, SEQ ID NO: 20 (protein, new world camelid) VHH: AVQLVESGGGLVQAGGSLRLSCAASGFSFDDYALGWFRQAPGKEPEGLSCISSSDGSTWYADSVKGRFTISSDNAKNTVYLQMNSLKPEDTAVYYCSAIYRLSCSVVRPTIRYALDYWGQGTQVTVSS | 20.9 | 565.3
